Assay results taken from US20060021073A1.

Molecular target: Rab3
Test: cell-based or functional assay

wild-type Noc2 expressed from adenovirus Ad-Noc2 wt in pancreatic islets of Noc2-/- mice (from UniProt Q768S4 1-302)
Ca2+-triggered insulin secretion in cultured pancreatic islets of Noc2-/- mice (ng/islet/30 min): 1.2
